Paper PMC8800109 (iScience, 2022)
Read-outs that look alike come from different tables or passages of the source.

What was measured:
[1] = target: briakinumab (human); test: MST
[2] = target: briakinumab-YTE (human); test: MST
[3] = target: briakinumab-YTE/IL12 (human) (UniProt P29460); test: MST
[4] = target: briakinumab/IL12 (human) (UniProt P29460); test: MST
[5] = target: ustekinumab-YTE/IL12 (human) (UniProt P29460); test: MST
[6] = target: briakinumab (human); test: MST; remark: listed apart in the source
[7] = target: briakinumab-YTE (human); test: MST; remark: listed apart in the source
[8] = target: briakinumab-YTE/IL12 (human) (UniProt P29460); test: MST; remark: listed apart in the source
[9] = target: briakinumab/IL12 (human) (UniProt P29460); test: MST; remark: listed apart in the source
[10] = target: ustekinumab (human); test: MST
[11] = target: ustekinumab-YTE (human); test: MST
[12] = target: ustekinumab-YTE/IL12 (human) (UniProt P29460); test: MST; remark: listed apart in the source
[13] = target: ustekinumab/IL12 (human) (UniProt P29460); test: MST
[14] = target: briakinumab (human); test: SPR
[15] = target: briakinumab-YTE (human); test: SPR
[16] = target: ustekinumab (human); test: SPR
[17] = target: ustekinumab-YTE (human); test: SPR
[18] = target: recombinant form of hFcRn immobilized on the analytical FcRn column (UniProt P55899); test: analytical hFcRn affinity chromatography
recombinant form of hFcRn immobilized on the analytical FcRn column, sequence (P55899 24-297, chain 1 of 2): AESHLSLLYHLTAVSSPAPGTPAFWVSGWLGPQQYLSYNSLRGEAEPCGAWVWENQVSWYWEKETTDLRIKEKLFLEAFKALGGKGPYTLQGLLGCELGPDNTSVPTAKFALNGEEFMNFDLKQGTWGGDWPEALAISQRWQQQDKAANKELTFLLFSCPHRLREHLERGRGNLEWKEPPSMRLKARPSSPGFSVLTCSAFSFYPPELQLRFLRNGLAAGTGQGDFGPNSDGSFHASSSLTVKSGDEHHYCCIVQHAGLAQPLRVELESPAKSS
recombinant form of hFcRn immobilized on the analytical FcRn column, sequence (P61769 21-119, chain 2 of 2, further chain): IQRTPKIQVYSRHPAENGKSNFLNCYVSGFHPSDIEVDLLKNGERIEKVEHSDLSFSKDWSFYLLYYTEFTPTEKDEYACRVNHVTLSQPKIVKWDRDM

[19] = target: recombinant human IL-12 (Homo sapiens, UniProt P29460;P29459); test: ELISA

Molecule: truncated monomeric His-tagged hFcRn (from UniProt P55899 24-365; P61769 21-119) (receptor)
- Kd [1]: > 25000 nM
- Kd [2]: > 20000 nM
- Kd [3]: > 4000 nM
- Kd [4]: > 10000 nM
- Kd [5]: > 20000 nM
- Kd [6]: 599 nM
- Kd [7]: 79 nM
- Kd [8]: 98 nM
- Kd [9]: 533 nM
- Kd [10]: 497 nM
- Kd [11]: 100 nM
- Kd [12]: 78 nM
- Kd [13]: 1000 nM
- Kd [14]: 545 nM
- Kd [15]: 64 nM
- Kd [16]: 653 nM
- Kd [17]: 95.5 nM

Molecule: ustekinumab (antibody)
- elution pH from the hFcRn column [18]: 7.2 pH

Molecule: ustekinumab-YTE (antibody)
- elution pH from the hFcRn column [18]: 7.9 pH

B1: briakinumab (antibody, V domains shown)
VH: QVQLVESGGGVVQPGRSLRLSCAASGFTFSSYGMHWVRQAPGKGLEWVAFIRYDGSNKYYADSVKGRFTISRDNSKNTLYLQMNSLRAEDTAVYYCKTHGSHDNWGQGTMVTVSS
VL: QSVLTQPPSVSGAPGQRVTISCSGSRSNIGSNTVKWYQQLPGTAPKLLIYYNDQRPSGVPDRFSGSKSGTSASLAITGLQAEDEADYYCQSYDRYTHPALLFGTGTKVTVL
- binding result [19]: binds

B2: briakinumab-YTE (antibody, V domains shown)
VH: QVQLVESGGGVVQPGRSLRLSCAASGFTFSSYGMHWVRQAPGKGLEWVAFIRYDGSNKYYADSVKGRFTISRDNSKNTLYLQMNSLRAEDTAVYYCKTHGSHDNWGQGTMVTVSS
VL: QSVLTQPPSVSGAPGQRVTISCSGSRSNIGSNTVKWYQQLPGTAPKLLIYYNDQRPSGVPDRFSGSKSGTSASLAITGLQAEDEADYYCQSYDRYTHPALLFGTGTKVTVL
- binding result [19]: binds
